From paper PMC11423328, “Catalytic Redundancies and Conformational Plasticity Drives Selectivity and Promiscuity in Quorum Quenching Lactonases” (JACS Au, 2024)
Substitutions are numbered along the chain they refer to. Numbers in names are those of the source.

Experiments:
GcL = molecular target: T1, GcL (Parageobacillus caldoxylosilyticus, UniProt A0A023DFE8, A156S); assay: 4-nitrophenolate release at […] nm; assay type: biochemical; conditions: 50 mM HEPES pH 8.0 (methods; table note pH 8.3), 150 mM NaCl, CoCl2, 25 °C
T1 construct: gene GCA01S_030_00190; expressed in E. coli BL21(DE3)-pGro7/GroEL with CoCl2; bimetallic Fe/Co centre; dimer

purified protein [1] = substrate: CCCC(=O)N[C@H]1CCOC1=O; assay: purified protein; assay type: biochemical, Parageobacillus caldoxylosilyticus; conditions: pH 8.3, 25 °C, 2.5 mM bicine, 150 mM NaCl, 0.2 mM CoCl2
purified protein [2] = substrate: CCCCCC(=O)N[C@H]1CCOC1=O; assay: purified protein; assay type: biochemical, Parageobacillus caldoxylosilyticus; conditions: pH 8.3, 25 °C, 2.5 mM bicine, 150 mM NaCl, 0.2 mM CoCl2
purified protein [3] = substrate: CCCCCCCC(=O)N[C@H]1CCOC1=O; assay: purified protein; assay type: biochemical, Parageobacillus caldoxylosilyticus; conditions: pH 8.3, 25 °C, 2.5 mM bicine, 150 mM NaCl, 0.2 mM CoCl2

T1 sequence (A0A023DFE8 entry or part of it A156S): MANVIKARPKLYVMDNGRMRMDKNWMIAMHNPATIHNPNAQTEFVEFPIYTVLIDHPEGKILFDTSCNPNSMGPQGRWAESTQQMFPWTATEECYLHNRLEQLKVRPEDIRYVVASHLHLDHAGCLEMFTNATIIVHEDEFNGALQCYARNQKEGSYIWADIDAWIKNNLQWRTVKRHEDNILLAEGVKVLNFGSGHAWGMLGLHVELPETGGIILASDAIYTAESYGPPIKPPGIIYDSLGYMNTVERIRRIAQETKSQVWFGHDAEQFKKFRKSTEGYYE

Molecule: CCOP(=O)(OCC)Oc1ccc([N+](=O)[O-])cc1 [Paraoxon, paraoxon ethyl]
- Km (GcL): 964 ± 136 µM

B1: GcL (Parageobacillus caldoxylosilyticus NBRC 107762; Y222F) (protein)
chain: MANVIKARPKLYVMDNGRMRMDKNWMIAMHNPATIHNPNAQTEFVEFPIYTVLIDHPEGKILFDTSCNPNSMGPQGRWAESTQQMFPWTATEECYLHNRLEQLKVRPEDIRYVVASHLHLDHAGCLEMFTNATIIVHEDEFNGALQCYARNQKEGAYIWADIDAWIKNNLQWRTVKRHEDNILLAEGVKVLNFGSGHAWGMLGLHVELPETGGIILASDAIFTAESYGPPIKPPGIIYDSLGYMNTVERIRRIAQETKSQVWFGHDAEQFKKFRKSTEGYYE
notes: expressed in E. coli BL21(DE3)-pGro7/GroEL with CoCl2; bimetallic Fe/Co centre; dimer
- Km (purified protein [1]): 758 ± 275 µM
- kcat (purified protein [1]): 0.79 ± 0.15 s⁻¹
- kcat/Km (purified protein [1]): 1040 ± 430 M⁻¹ s⁻¹
- Km (purified protein [2]): 92.7 ± 36.7 µM
- kcat (purified protein [2]): 5.01 ± 0.46 s⁻¹
- kcat/Km (purified protein [2]): 54100 ± 21900 M⁻¹ s⁻¹

B2: GcL (Parageobacillus caldoxylosilyticus NBRC 107762; A156G) (protein)
chain: B1 chain with A156G, F222Y
notes: as for B1
- Km (purified protein [3]): 19.34 ± 3.28 µM
- kcat (purified protein [3]): 7.97 ± 0.33 s⁻¹
- kcat/Km (purified protein [3]): 412000 ± 72000 M⁻¹ s⁻¹

B3: GcL (Parageobacillus caldoxylosilyticus NBRC 107762; A156S) (protein)
chain: B1 chain with A156S, F222Y
notes: as for B1
- Km (purified protein [1]): 475 ± 103 µM
- kcat (purified protein [1]): 24.9 ± 2.52 s⁻¹
- kcat/Km (purified protein [1]): 52400 ± 12500 M⁻¹ s⁻¹

B4: GcL (Parageobacillus caldoxylosilyticus NBRC 107762; I236M) (protein)
chain: B1 chain with F222Y, I236M
notes: as for B1
- Km (purified protein [2]): 2.38 ± 0.68 µM
- kcat (purified protein [2]): 0.95 ± 0.04 s⁻¹
- kcat/Km (purified protein [2]): 399000 ± 115000 M⁻¹ s⁻¹

B5: GcL (Parageobacillus caldoxylosilyticus NBRC 107762; G155P) (protein)
chain: B1 chain with G155P, F222Y
notes: as for B1
- Km (purified protein [2]): 563 ± 150 µM
- kcat (purified protein [2]): 2.44 ± 0.31 s⁻¹
- kcat/Km (purified protein [2]): 4340 ± 1280 M⁻¹ s⁻¹
- Km (purified protein [3]): 8.22 ± 2.92 µM
- kcat (purified protein [3]): 1.44 ± 0.09 s⁻¹
- kcat/Km (purified protein [3]): 175000 ± 63000 M⁻¹ s⁻¹

B6: GcL (Parageobacillus caldoxylosilyticus NBRC 107762; D121N) (protein)
chain: B1 chain with D121N, F222Y
notes: as for B1
- Km (purified protein [1]): 41.0 ± 9.14 µM
- kcat (purified protein [1]): 1.74 ± 0.1 s⁻¹
- kcat/Km (purified protein [1]): 42500 ± 9800 M⁻¹ s⁻¹
- Km (purified protein [2]): 13.0 ± 6.16 µM
- kcat (purified protein [2]): 2.6 ± 0.24 s⁻¹
- kcat/Km (purified protein [2]): 200000 ± 96000 M⁻¹ s⁻¹
